Experimental data taken from patent publication US7696313B2, “Prodrug compounds with isoleucine” (priority 2000, dated 2010).
Several values for one entry are separate records, joined by “and”; a condition that tells them apart may be missing. Equal entries are not always repeated. Entries after “also recorded” stand apart in the source; their conditions may differ.

Assays:
[1] = Metabolism and clearance in normal mice (plasma and urine, LC MS/MS); type: in vivo
Description: The metabolism and clearance of Suc-Ile-Ala-Leu-Dox was studied in normal mice. The mice were administered Suc-Ile-Ala-Leu-Dox at a single intravenous bolus dose of 117 mg/kg. Plasma samples were obtained at 1 and 4 hours. Plasma samples of 100 μl were transferred to Eppendorf tubes (1.5 mL) and an internal standard of daunorubicin (20 μL at 0.5 mg/ml) was added together with acetonitrile (400 μl). The tubes were capped and briefly vortexed followed by centrifugation at 14,000 rpm. 420 μl from each tube was removed and dried in vacuo. Each sample was reconstituted in 65 μl ammonium formate containing acetonitrile (20%) prior to analysis by reverse phase liquid chromatography in combination with tandem mass spectrometry (LC MS/MS).
Urine was collected at 2 and 24 hours post administration from pairs of mice in metabolic cages. Urine samples were diluted with ammonium formate containing acetonitrile (20%) to give a target analyte concentration within the practical range of the LC MS/MS assay. 30 μl of each diluted sample was placed in an Eppendorf tube (1.5 ml) and an internal standard of daunorubicin (20 μL at 0.5 mg/ml) was added together with 50 μl of ammonium formate containing acetonitrile (20%). Each sample was then analyzed by LC MS/MS.
An Agilent HP 1100. HPLC with DAD detector and Chemstation software was coupled to a PE Sciex API 365 mass spectrometer with an electrospray ion source.
HPLC was performed on a TSK-Gel Super ODS, […], 4.6×50 mm (TosoHaas) reversed phase column equipped with a […] C18 guard disc (Higgins Analytical) and stainless steel frit (Upchurch Scientific). Chromatography was performed at room temperature. The flow rate was 0.5 ml/min. Injection volume was 50 μl. Gradient elution was performed using a mobile phase of 20 mM ammonium formate with increasing amounts of acetonitrile. The API 365 was operated at 365° C. in a multiple reaction monitoring mode, set to monitor specific analyte parent-daughter ion pairs. Integration of chromatograms was performed by MacQuan software (PE Sciex) and quantitation of each analyte obtained by comparison to previously obtained calibration curves. Daunorubicin was used as an internal standard in all cases.
Percent of administered dose—plasma volume estimated at 40% of blood volume, which was calculated at 7% of animal's body weight.
Plasma samples were obtained at 1 and 4 hours from separate mice. Urine was collected at 2 and 24 hours post administration from pairs of mice in metabolic cages. The plasma and urine samples were prepared and analyzed as described in Example 4.

[2] = for Major Plasma Metabolite, Table 7 / Major Plasma Metabolite, Table 8: mice
Description: (§9) Plasma was obtained from three individual animals in each group at 5 minutes, 1, 2, 4, or 6 hr.

normal ICR mice = experiment: Second single dose Maximum Tolerated Dose (SD-MTD) study, 49 days; settings: for acute toxicity within 24 hours: any dose level; for SD-MTD (mg/kg Dox=): doxorubicin equivalent
Description: (§1) In a second single dose Maximum Tolerated Dose (SD-MTD) study, groups of five normal ICR mice were administered intravenously bolus doses of Suc-Ile-Ala-Leu-Dox. The mice were observed daily for 49 days and body weights measured twice weekly.
(§2) In a second single dose Maximum Tolerated Dose (SD-MTD) study, groups of five normal ICR mice were administered intravenous bolus doses of Suc-βAla-Ile-Ala-Leu-Dox. The mice were observed daily for 49 days and body weights measured twice weekly.

[3] = as above; settings: mouse, in vivo, iv
Description: as §1, §2

[4] = tested on: PC-3 (prostate carcinoma) cells; settings: read-out: IC50 PC-3; 48 hours, 3H-thymidine incorporation
Description: (§3) Adherent cells, LNCaP (prostate carcinoma), HT-29 (colon carcinoma) and PC-3 (prostate carcinoma), were cultured in DMEM media containing 10% heat inactivated fetal calf serum (FCS). On the day of the study the cells were detached from the plate with a trypsin solution. The collected cells were washed and resuspended at a concentration of 0.25×10^6 cells/ml in DMEM containing 10% FCS. 100 μl of cell suspension were added to 96 well plates and the plates were incubated for 3 hours to allow the cells to adhere. […] The plates were then incubated for 24 hours, pulsed with 10 μl of a 100 μCi/ml ^3H-thymidine and incubated for an additional 24 hours (total incubation time 48 hours). The plates were harvested using a 96 well Harvester (Packard Instruments) and counted on a Packard Top Count Counter. Four parameter logistic curves were fitted to the ^3H-thymidine incorporation as a function of drug molarity using Prism software to determine IC50 values.
(§4) Prostate carcinoma cells, LNCaP and PC-3 cells or colon carcinoma cells HT-29, were incubated with increasing concentration of the indicated compounds for 48 hours and cellular proliferation was measured using the ^3H-thymidine assay.

[5] = tested on: LNCaP (prostate carcinoma) cells; settings: read-out: IC50 LNCaP; 48 hours, 3H-thymidine incorporation
Description: as §3, §4

[6] = tested on: HT-29 (colon carcinoma) cells; settings: read-out: IC50 HT29; 48 hours, 3H-thymidine incorporation
Description: as §3, §4

[7] = mouse, in vivo, iv, 100 umol/kg
Description: as §9

tumor bearing mice [8] = experiment: Repeat-dose tolerance (RD-MTD) in tumor bearing mice; type: in vivo
Description: (§5) In repeat-dose studies in tumor bearing mice, groups of ten mice were dosed with various amounts of prodrug for a total of five doses at either five day or 1 week intervals.

[9] = as above; type: in vivo; settings: mouse, in vivo
Description: as §5

[10] = Initial single dose Maximum Tolerated Dose (MTD) study, 28 days; type: in vivo, mice; settings: mouse, in vivo
Description: (§6) In our initial single dose Maximum Tolerated Dose (MTD) study, groups of five normal mice were administered intravenous bolus doses of Suc-Ile-Ala-Leu-Dox. The mice were observed daily for 28 days and body weights measured twice weekly.
(§7) The mice were observed daily for 28 days and body weights measured twice weekly.
(§8) In the single dose Maximum Tolerated Dose (MTD) studies, groups of normal mice were administered intravenous bolus doses of the prodrug. The mice were observed daily for 28 days and body weights measured twice weekly. The MTD was estimated to be equal to the highest dose that produced no death in mice after 28 days.

normal mice = experiment: as above; type: in vivo; settings: for single dose MTD fold higher than doxorubicin alone, after post-analysis: about 75% active compound, versus doxorubicin […] mg/kg; for acute toxicity / single-dose MTD, doxorubicin equivalent: intravenous bolus; for acute toxicity: all dose levels tested; for single-dose MTD, doxorubicin equivalent: normal mice; for single-dose MTD fold higher than doxorubicin alone: versus doxorubicin 4 mg/kg
Description: as §6, §7, §8

tumor bearing mice [11] = settings: repeat dosing, 5 doses; cited from earlier work
[12] = Metabolism and clearance in normal mice (plasma and urine, LC MS/MS); type: in vivo; settings: after Suc-βAla-Ile-Ala-Leu-Dox 117 mg/kg
[13] = tested on: LNCaP, HT-29 and PC-3 cells; experiment: 3H-thymidine proliferation assay, stated across the cell lines used; type: cell-based; settings: 48 hours, 3H-thymidine incorporation; read-out: IC50 of the positive control in the cell lines used
Description: as §3, §4

[14] = tested on: doxorubicin-resistant colorectal carcinoma LS174t; settings: tolerated dose under this dosing regimen; cited from earlier work
[15] = tested on: doxorubicin-resistant colorectal carcinoma LS174t; experiment: LS174t human colorectal carcinoma xenograft efficacy; type: in vivo, nude mice; settings: uncorrected
Description: as §5

[16] = 28 days, uncorrected doses, read-out: SD MTD (mg/kg), Table 7
[17] = SD MTD, doxorubicin equivalent dose, Table 8, value in parentheses, corrected results
[18] = SD MTD, molar equivalent dose of doxorubicin, Table 7, value in parentheses, uncorrected
[19] = corrected results, read-out: SD MTD (mg/kg), Table 8
[20] = after Suc-Ile-Ala-Leu-Dox 117 mg/kg, collected 0-2 hours
[21] = after Suc-Ile-Ala-Leu-Dox 117 mg/kg, collected 2-24 hours

SMILES | Major Plasma Metabolite, Table 7 [2] | Major Plasma Metabolite, Table 8 [2] | acute toxicity within 24 hours (normal ICR mice) | SD-MTD (mg/kg Dox=) (normal ICR mice) | IC50 [4] | IC50 [5] | IC50 [6] | AUC(0-t) [7] | MTD [10, 16] | MTD [10, 17] | MTD [10, 18] | MTD [10, 19] | single dose MTD fold higher than doxorubicin alone, after post-analysis (normal mice) | acute toxicity (normal mice) | single-dose MTD, doxorubicin equivalent (normal mice; 28 days) | single-dose MTD fold higher than doxorubicin alone (normal mice) | Urine 2 hr, percent of administered dose [1, 20] | Urine 24 hr, percent of administered dose [1, 21] | other results
CC[C@H](C)[C@H](NC(=O)CCNC(=O)CCC(=O)O)C(=O)N[C@@H](C)C(=O)N[C@@H](CC(C)C)C(=O)N[C@H]1C[C@H](O[C@H]2C[C@](O)(C(=O)CO)Cc3c(O)c4c(c(O)c32)C(=O)c2c(OC)cccc2C4=O)O[C@@H](C)[C@H]1O [Suc-βAla-Ile-Ala-Leu-Dox] | Leu-Dox | Leu-Dox | no acute toxicity | 42 mg/kg Dox= | 57 µM | 0.19 µM | 38 µM | 326 µM·h | 75 mg/kg | 42 mg/kg | 42 mg/kg | 75 mg/kg | approximately 3.7 fold | No acute toxicity | 40 mg of doxorubicin/kg | approximately 10 fold | – | – | Urine 2 hr, percent of administered dose ([1]; mouse, in vivo): 12.7 % of administered dose; Urine 24 hr, percent of administered dose ([1]; mouse, in vivo): 4.81 % of administered dose; morbidity or mortality (normal ICR mice; 75 mg/kg dose group): no morbidity or mortality; animals euthanized due to weight loss or paralysis (normal ICR mice; 100 mg/kg dose, by Day 21, groups of five): three; SD-MTD Molar Ratio (Dox=) (normal ICR mice; fold higher on a molar basis than SD-MTD of doxorubicin): 2.6; MTD [3]: 75 mg/kg; RD-MTD, doxorubicin equivalent per dose (tumor bearing mice [8]; Q7Dx5 as printed): 30 mg/kg doxorubicin equivalent; RD-MTD as total exposure (tumor bearing mice [8]; after 5 doses (Q5DX5)): approximately 150 mg/kg doxorubicin equivalent; treated animals terminated due to signs of toxicity (tumor bearing mice [8]; high dose group (68 mg/kg, Q5DX5), groups of ten): Two; RD-MTD fold higher than RD-MTD / tolerated repeat dose level of doxorubicin (tumor bearing mice [8]; versus doxorubicin 4 mg/kg): at least 6.5 fold; MTD ([9]; Q7Dx5 as printed, based on efficacy study in Example 8, read-out: RD-MTD (repeat-dose MTD)): ~53 mg/kg; MTD ([9]; Repeat Dose MTD, doxorubicin equivalent dose, Table 8, value in parentheses, corrected results): 30 mg/kg; MTD ([9]; corrected results, Q 5D × 5 or Q 7D × 5, read-out: Repeat Dose MTD (mg/kg), Table 8): 53 mg/kg; MTD ([10]; iv, intravenous bolus, normal mice, 28 days, read-out: single-dose Maximum Tolerated Dose (MTD)): 75 mg/kg; morbidity (normal mice; 75 mg/kg dose group): no morbidity; animals euthanized due to treatment-related toxicity (normal mice; 100 mg/kg dose group, Day 21, groups of five): two; animals euthanized due to treatment-related toxicity (normal mice; 125 mg/kg dose group, Day 14, groups of five): four
CC[C@H](C)[C@H](NC(=O)CCC(=O)O)C(=O)N[C@@H](C)C(=O)N[C@@H](CC(C)C)C(=O)N[C@H]1C[C@H](O[C@H]2C[C@](O)(C(=O)CO)Cc3c(O)c4c(c(O)c32)C(=O)c2c(OC)cccc2C4=O)O[C@@H](C)[C@H]1O [Suc-Ile-Ala-Leu-Dox] | Leu-Dox | Leu-Dox | no acute toxicity | 56 mg/kg Dox= and 58 mg/kg Dox= | 88 µM | 1.1 µM | 47 µM | 452 µM·h | > 117 mg/kg | 56 mg/kg | > 70 mg/kg | 94 mg/kg | at least 3.3 fold | no acute toxicity | 66 mg of doxorubicin/kg and 70 mg of doxorubicin/kg | at least 16 fold | 3.9 % of administered dose | 15.0 % of administered dose | relative exposure to doxorubicin ([2]; tripeptide vs tetrapeptide counterpart, leucine vs isoleucine compounds): two fold decrease; mortalities (normal mice; doses up to 117 mg/kg, 28 days): no mortalities
COc1cccc2c1C(=O)c1c(O)c3c(c(O)c1C2=O)C[C@@](O)(C(=O)CO)C[C@@H]3O[C@H]1C[C@H](N)[C@H](O)[C@H](C)O1 [Doxorubicin, reference compound] | – | – | – | – | – | – | – | – | – | – | – | – | – | – | – | – | 0.06 % of administered dose | 0.36 % of administered dose | tolerated repeat dose level of doxorubicin (standard safe RD efficacious dose) (tumor bearing mice [11]): 4 mg/kg and 3 mg/kg; Urine 2 hr, percent of administered dose ([12]; collected 0-2 hours): 0.21 % of administered dose; Urine 24 hr, percent of administered dose ([12]; collected 2-24 hours): 0.51 % of administered dose; Plasma 4 hr, percent of administered dose ([1]; mouse, in vivo, 4 h): 0.00 % of administered dose; IC50 [13]: 0.02 to 0.08 µM; efficacy of doxorubicin alone at its tolerated dose in LS174t model [14]: historically ineffective; also recorded: completely ineffective; Optimal Efficacy Repeat Dose (mg/kg) ([15]; five doses at five day or 1 week intervals, 60 days): 4 (4) mg/kg; Optimal Efficacy Repeat Dose, molar equivalent dose of doxorubicin ([15]; value in parentheses): 4 (4) mg/kg
